Measurements as given in paper PMC3360023, “Identification and Characterisation of a Novel Acylpeptide Hydrolase from Sulfolobus Solfataricus: Structural and Functional Insights” (PLoS ONE, 2012).
Each block holds one molecule with its values, some of them ahead of it.

Columns and labels:
[1] = target: APEH-3Ss, acylpeptide hydrolase from Sulfolobus solfataricus coded by the gene sso2693 (Sulfolobus solfataricus P2); experiment: SEC; gel filtration of the native purified enzyme on two columns (Superdex 200 HR 10/30; Superose 12 PC 3.2/30), calibrated with BioRad gel filtration standards
[2] = target: APEH-3Ss, acylpeptide hydrolase from Sulfolobus solfataricus coded by the gene sso2693 (Sulfolobus solfataricus P2); experiment: SEC; Superose 12 3.2/30; enzyme treated with 0.5 M GnHCl, column equilibrated with Tris-HCl 0.05 M pH 7.5 containing 0.5 M GnHCl
[3] = target: APEH-3Ss, acylpeptide hydrolase from Sulfolobus solfataricus coded by the gene sso2693 (Sulfolobus solfataricus P2); experiment: SEC; Superose 12 3.2/30; enzyme treated with 0.5 M GnHCl, then dialysed extensively against Tris-HCl 0.05 M pH 7.5 before gel filtration
purified protein [4] = substrate: CC(=O)N[C@@H](Cc1ccccc1)C(=O)Nc1ccc([N+](=O)[O-])cc1; experiment: purified protein; assay type: biochemical, Saccharolobus solfataricus; conditions: 25 mM Tris-HCl pH 7.5, 90°C
purified protein [5] = substrate: CC(=O)N[C@@H](CC(C)C)C(=O)Nc1ccc([N+](=O)[O-])cc1; experiment: purified protein; assay type: biochemical, Saccharolobus solfataricus; conditions: 25 mM Tris-HCl pH 7.5, 90°C
purified protein [6] = substrate: CC(=O)N[C@@H](C)C(=O)Nc1ccc([N+](=O)[O-])cc1; experiment: purified protein; assay type: biochemical, Saccharolobus solfataricus; conditions: 25 mM Tris-HCl pH 7.5, 90°C
[7] = target: APEH-3Ss, acylpeptide hydrolase from Sulfolobus solfataricus coded by the gene sso2693 (Sulfolobus solfataricus P2)

- stoichiometry N [1]: 3
- stoichiometry N [2]: 2
- stoichiometry N [3]: 3
Molecule: APEH-3Ss, acylpeptide hydrolase from Sulfolobus solfataricus coded by the gene sso2693 (enzyme)

B1: APEH-3Ss (Saccharolobus solfataricus P2) (protein)
chain: MKPEDYYYSIKLVPEITIENGKLFHVETWIEEDKYKSSIYLNLKRITFQGNESSPKFNNDKLYFIRNEEAKSSLLEAQLYGEPKVIFTFSGKISKYEFHNKGILVIAEENTDKTLPFRAEKIKYRFDSRGLLRARQSLYLFDGKDLRRLVTGNFDVTDLATNGNRVVISATKDGDDYGLGNLYEVNIETGELNRITKEDGTVQAIAMNSEGKIAFLGHRKGLTPWASLEIMLPEEGKSYMCGKTCGNKVLTDLFDGVKDRIVFEKDLILSLGQEGGTSHIYQISDNKVDKVTSGNIMVRGFDYSNSELAYFYSTPEKPVILKYRDIEYDPNPNIKGYTPERITVNSNGVEVEGWSIIKDPNAPTILFIHGGPHMAYGYGYFIEFQFFVDNGFNVIYANPRGSQGYGEEFAKACVGDWGGKDFEDLMNFVNTVKERYSLKGKFGITGGSYGGFMTNWIVTKTSMFSAAISERSISNLVSMCGTSDIGFWFNAIESGIADPWSTEGIEKLMKMSPIYYVKNVKTPTMLIHGEEDYRCPIEQAEQFYVALKMQGVPTTLVRYQGDSHEHARRGKPKNMIDRLKTKLEWFSKYLL
notes: native enzyme purified from S. solfataricus P2 cells; full length 591 aa, not processed; N-terminus MKPEDYYYSI; 64 kDa by SDS-PAGE; homotrimer 192 kDa
- Km (purified protein [4]): 0.04 mM
- kcat (purified protein [4]): 0.08 ± 0.005 s⁻¹
- kcat/Km (purified protein [4]): 2000 ± 10 M⁻¹ s⁻¹
- Km (purified protein [5]): 0.6 ± 0.05 mM
- kcat (purified protein [5]): 18 ± 0.1 s⁻¹
- kcat/Km (purified protein [5]): 32700 ± 400 M⁻¹ s⁻¹
- Km (purified protein [6]): 0.8 ± 0.06 mM
- kcat (purified protein [6]): 14 ± 0.1 s⁻¹
- kcat/Km (purified protein [6]): 17500 ± 100 M⁻¹ s⁻¹

- IC50 of inhibition of APEH-3Ss activity on Ac-L-pNA (0.2 mM); protease pre-incubated with increasing SsCEI for 30 min at 80°C, Tris-HCl 50 mM pH 7.5 [7]: 0.008 µM
- IC50 of inhibition of APEH-3Ss activity on Suc-GGF-pNA (0.2 mM); protease pre-incubated with increasing SsCEI for 30 min at 80°C, Tris-HCl 50 mM pH 7.5 [7]: 0.02 µM
B2: SsCEI (Sulfolobus solfataricus chymotrypsin-elastase inhibitor) (natural protein)
chain: MNSESIYSMRVVSSAFKNEDFIPIKYTCDGQDLSPELEWDLVTNAKSYAIIVEDPDAPGGTFIHWVIYNITTNRLPEGVPRLYKSQYGVQGVNDFGNIGYNGPCPPKTHPPHRYYFYVYAIDTILLEIKNINADKLKSLMEGHGIERGFVMGKYKRK
